This note sets out measurements from paper PMC9438502, “Complementarity of neutron, XFEL and synchrotron crystallography for defining the structures of metalloenzymes at room temperature” (IUCrJ, 2022).

The series concerns the molecule itself. As to the kind of experiment: crystal structure; room-temperature crystals of DHP-B, space group P2(1)2(1)2(1); neutron, in-house X-ray, SFX, SSX and serial Laue data; two protomers (A, B) in the asymmetric unit.

B1: dehaloperoxidase B (enzyme, Amphitrite ornata)
chain: MGFKQDIATLRGDLRTYAQDIFLAFLNKYPDEKRNFKNYVGKSDQELKSMAKFGDHTEKVFNLMMEVADRATDCVPLASDASTLVQMKQHSGLTTGNFEKLFVALVEYMRASGQSFDSQSWDRFGKNLVSALSSAGMK
notes: dehaloperoxidase B (DHP-B), heme-containing coelomic hemoglobin of the marine annelid Amphitrite ornata; 274 protein residues modelled for the two protomers of the asymmetric unit; Heme protein, ferric or oxyferrous; The crystal for NX and NX-Xray was perdeuterated (97% deuteration level); the other crystals were protiated; also called DHP-B; dehaloperoxidase isoenzyme B; source: E. coli …
B1: the binding result is given as “binds”.
